# Experimental data: US7858756B2, “Monoclonal antibodies that selectively recognize methamphetamine and methamphetamine like compounds” (The Board of Trustees of the University of Arkansas, priority 2006, dated 2010)
# Where a chain is given by its changes, count along the chain named. “Also recorded” adds a separate entry of the source.
# B1: mAb4G9: monoclonal antibody, IgG2b κ, heavy chain SEQ ID NO:25, light chain SEQ ID NO:26, generated against hapten (+)METH MO10-ovalbumin (antibody, listed as Mus musculus)
# heavy: EYQLQQSGTVLARPGASVKMSCKASGYTFTSYWMHWVKQRPGQGLEWIGGIYPGNSDTTYNQKFKGKAKLTAVTSTSTAYMELSSLTNEDSAVYYCLYGNYDFDYWGQGTTLTVSSAKTTPPSVYPLAPGCGDTTGSSVTLGCLVKGYFPESVTVTWNSGSLSSSVHTFPALLQSGLYTMSSSVTVPSSTWPSQTVTCSVAHPASSTTVDKKLEPSGPISTINPCPPCKECHKCPAPNLEGGPSVFIFPPNIKDVLMISLTPKVTCVVVDVSEDDPDVQISWFVNNVEVHTAQTQTHREDYNSTIRVVSTLPIQHQDWMSGKEFKCKVNNKDLPSPIERTISKIKGLVRAPQVYILPPPAEQLSRKDVSLTCLVVGFNPGDISVEWTSNGHTEENYKDTAPVLDSDGSYFIYSKLNMKTSKWEKTDSFSCNVRHEGLKNYYLKKTISRSPGK
# light: DVQMTQSPSSLSASLGGKVTITCKASQDINKFIAWYQHKPGKGPRLLIHYTSTLQPGIPSRFSGSGSGRDYSFSISNLEPEDIATYYCLQYANLLPWTFGGGTKLEIKRADAAPTVSIFPPSSEQLTSGGASVVCFLNNFYPKDINVKWKIDGSERQNGVLNSWTDQDSKDSTYSMSSTLTLTKDEYERHNSYTCEATHKTSTSPIVKSFNRNEC
# B2: mAb2F11: monoclonal antibody comprising heavy chain SEQ ID NO:19 and light chain SEQ ID NO:21 (antibody, listed as Mus musculus)
# heavy: EYQLQQSGTVLARPGASVKMSCKASGYTFTNYWMHWVKQRPGQGLEWIGGIYPGNSDTTYNQKFKGKAKLTAVTSTSTAYMELSSLTNEDSAVYYCLYGNYDFDYWGQGTTLTVSSAKTTAPSVYPLAPVCGDTTGSSVTLGCLVKGYFPEPVTLTWNSGSLSSGVHTFPAVLQSDLYTLSSSVTVTSSTWPSQSITCNVAHPASSTKVDKKIEPRGPTIKPCPPCKCPAPNLLGGPSVFIFPPKIKDVLMISLSPIVTCVVVDVSEDDPDVQISWFVNNVEVHTAQTQTHREDYNSTLRVVSALPIQHQDWMSGKEFKCKVNNKDLPAPIERTISKPKGSVRAPQVYVLPPPEEEMTKKQVTLTCMVTDFMPEDIYVEWTNNGKTELNYKNTEPVLDSDGSYFMYSKLRVEKKNWVERNSYSCSVVHEGLHNHHTTKSFSRTPGK
# light: B1 light with V2I, Q27H, I29V, A92T
# Tests used:
# [1] = RIA, inhibition of [3H]-(+)METH binding to mAb; details: RIA IC50 for METH / RIA IC50 for test ligand
# Excerpt: In reference to (+)methamphetamine, the IC50 ratio refers to the ratio of the IC50 for (+)methamphetamine in the presence of labeled (+)methamphetamine to the IC50 for a test ligand in the presence of labeled (+)methamphetamine. The IC50 value is the concentration of test ligand required to inhibit 50% of the labeled (+)methamphetamine binding. For instance, see Table 2 in the Examples.
# Determination of immunochemical specificity.
# [2] = Functional half-life study, 14-day continuous (+)METH infusion, serum concentrations; format: in vivo, rats
# Method: The best-fit line was determined using a weighted two-compartment pharmacokinetic model.
# Serum samples were collected pre-mAb and at time points after mAb administration.
# [3] = METH infusion by sc osmotic minipump, serum and brain METH and AMP concentrations after mAb; format: in vivo, rat; details: for AMP serum concentrations vs pre-mAb levels / METH serum concentrations vs pre-mAb levels: rat serum, 1 min to 24 hr after mAb, FIG. 7
# Method: FIG. 7 depicts two graphs showing the effect of mAb6H4 (Panel A) and mAb4G9 (Panel B) on METH (closed circles) and AMP (open circles) concentrations in rat serum. METH was infused using a subcutaneous osmotic minipump and once steady state concentrations were reached, anti-METH mAb was administered. Rats were sacrificed at various time points for determination of serum METH and AMP concentrations.
# FIG. 8 depicts two graphs showing the effect of mAb6H4 (Panel A) and mAb4G9 (Panel B) on METH (closed circles) and AMP (open circles) concentrations in the rat brain. METH was infused using a subcutaneous osmotic minipump and once steady state concentrations were reached, anti-METH mAb was administered. Rats were sacrificed at various time points for determination of brain METH and AMP concentrations. One way ANOVA followed by a Dunnett's test was used to compare control and post-mAb METH and AMP values.
# [4] = METH drug discrimination model; format: in vivo, rats; details: 600 mg/kg mAb
# Method: (§1) FIG. 6 presents graphs depicting the effect of mAb4G9 on METH discrimination (Panel A) and AMP self-administration (Panel B) in rats. (A) Rats were trained to discriminate […] and METH and then administered mAb4G9. Drug discrimination dose response curves were then determined for METH. (B) (+)AMP self-administration before and after treatment with mAb4G9 (3-4 rats/time point). Dashed lines are used to show the groupings of responding for (+)AMP before and after mAb. *P<0.05 compared to control group before antibody (open circles).
# The in vivo effects of mAb4G9 were examined using a drug discrimination model. mAb4G9 appeared to be an effective and long-lasting antagonist of METH effects in this model (FIG. 6A). The mAb4G9 (600 mg/kg) shifted the dose response curves for at least 7 days. On the first and second day after mAb treatment, the dose response curve was shifted about 4- to 6-fold. When tested again at 7 days after mAb4G9 treatment, the dose response curve was still shifted about 2.5 fold.
# [5] = (+)AMP self-administration, fixed interval (60 sec) paradigm; format: in vivo, rats; details: 100 mg/kg mAb, 0.03 mg/kg (+)AMP per infusion
# Method: as §1
# We also tested the ability of mAb4G9 to block (+)AMP self-administration in a model in which rats responded under a fixed interval (60 sec) paradigm for a dose of 0.03 mg/kg (+)AMP per infusion.
# [6] = (+)METH 5.6 mg/kg/day sc minipump, single mAb dose equimolar to body burden
molecule,measurement,setting,value
B1,"Antibody Specificity (IC50 ratio as percent), 4-OH-METH",[1],10.6%
same,"Antibody Specificity (IC50 ratio as percent), (+)AMP",[1],34%
same,"Antibody Specificity (IC50 ratio as percent), (+)MDA",[1],9.0%
same,"Antibody Specificity (IC50 ratio as percent), (+)MDMA",[1],29%
same,"Antibody Specificity (IC50 ratio as percent), (+)METH",[1],100%
same,"Antibody Specificity (IC50 ratio as percent), (+)ephedrine",[1],<0.1%
same,"Antibody Specificity (IC50 ratio as percent), (+)norpseudoephedrine",[1],<0.1%
same,"Antibody Specificity (IC50 ratio as percent), (+)phenylpropanolamine",[1],<0.1%
same,"Antibody Specificity (IC50 ratio as percent), (+)pseudoephedrine",[1],0.4%
same,"Antibody Specificity (IC50 ratio as percent), (−)AMP",[1],6.3%
same,"Antibody Specificity (IC50 ratio as percent), (−)MDA",[1],0.2%
same,"Antibody Specificity (IC50 ratio as percent), (−)MDMA",[1],1.1%
same,"Antibody Specificity (IC50 ratio as percent), (−)METH",[1],10.2%
same,"Antibody Specificity (IC50 ratio as percent), /-phenylphrine",[1],<0.1%
same,"Antibody Specificity (IC50 ratio as percent), dopamine",[1],<0.1%
same,"Antibody Specificity (IC50 ratio as percent), epinephrine",[1],<0.1%
same,"Antibody Specificity (IC50 ratio as percent), norepinepherine",[1],<0.1%
same,"Antibody Specificity (IC50 ratio as percent), serotonin",[1],<0.1%
same,"Antibody Specificity (IC50 ratio as percent), tyramine",[1],<0.1%
same,"Antibody Specificity (IC50 ratio as percent), β-phenylethylamine",[1],0.1%
same,serum (+)AMP concentrations compared with pre-mAb,[2]; [6],maintained significantly increased concentrations
same,serum (+)METH concentrations compared with pre-mAb,[2]; [6],maintained significantly increased concentrations
same,time after which mAb still very effective,"[2]; continuous (+)METH infusion, single mAb dose",about 2 wks
same,AMP brain concentrations vs no mAb group,"[3]; rat brain, FIG. 8",reduces both METH and AMP concentrations in the brain; also recorded: significantly decreased at the 5 and 30 min time points
same,METH brain concentrations vs no mAb group,"[3]; rat brain, FIG. 8",reduces both METH and AMP concentrations in the brain; also recorded: significantly decreased METH brain concentrations at all time points
same,AMP serum concentrations vs pre-mAb levels,[3],repartitions AMP into the serum from other compartments; also recorded: maintains significantly elevated serum METH and AMP concentrations 24 h after administration
same,METH serum concentrations vs pre-mAb levels,[3],maintains significantly elevated serum METH and AMP concentrations 24 h after administration
same,AMP serum concentrations vs pre-mAb levels,[3]; listed as MAb4G9,significantly increased METH and AMP serum concentrations from 1 min to 24 hrs
same,METH serum concentrations vs pre-mAb levels,[3]; listed as MAb4G9,significantly increased METH and AMP serum concentrations from 1 min to 24 hrs
same,duration of shift of dose response curves,[4],at least 7 days
same,shift of METH dose response curve,[4]; 7 days after treatment,about 2.5 fold
same,number of (+)AMP injections per session,[5],significantly reduced
B2,"Antibody Specificity (IC50 ratio as percent), (+)AMP",[1],33%
same,"Antibody Specificity (IC50 ratio as percent), (+)MDMA",[1],41%
same,"Antibody Specificity (IC50 ratio as percent), (+)METH",[1],100%^
same,"Antibody Specificity (IC50 ratio as percent), (−)AMP",[1],5.3%
same,"Antibody Specificity (IC50 ratio as percent), (−)MDMA",[1],0.6%
same,"Antibody Specificity (IC50 ratio as percent), (−)METH",[1],2.2%
